Laboratory results published in publication PMC11641012.

Legend:
Experiment in all cases: EMSA
Conditions in all cases: EMSA: 10 mM Tris-HCl, 10 mM NaCl, 40 mM KCl, 1 mM MgCl2, 4 mM EDTA, 1 mM DTT, 0.5 mg/ml BSA, 5% glycerol, 2 pmol DNA in 15 ul, room temperature 15 min (pH not …)
[1] = test system: IntI1 (IntI1Y312F), MBP fusion
[2] = test system: IntI1A
[3] = test system: IntI1deltaC

CATTGCGCATTGCGTAGATCTTTTATGTCTAACAATTCATTCAAGCCGACGCCGCTTCGCGGCGCGGCTTAATTCAAGCGTTAGACATTTTCCATGGCTATATTTCAGCATCATCACATCATCATCATCATCATCACAGGGTAGATCATCATCATCAACACGGGACGACAGCAAATGGCACCCTTCTATAAGCTTTTTATGTCTAACAATTCATTCAAGCCGACGCCGCTTCGCGGCGCGGCTTAATTCAAGCGTTAGACATTTTCTCGAGGGTATAGCATTCTAG / CCCTGTGATGATGATGATGATGATGTGATGATGCTGAAATATAGCCATGGACGCAGATCTACGCAATGCGCAATG / CTAGAATGCTATACCCTCGAGCGCAAGCTTATAGAAGGGTGCCATTTGCTGTCGTCCCGTGTTGATGATGATGATC [double-attCaadA7ts + staples]
binding signal [1]: 7 % bound

CATTGCGCATTGCGTAGATCTTTTATGTCTAACGCTTGAATTAAGCCGCGCCGCGAAGCGGCGTCGGCTTGAATGAATTGTTAGACATTTTCCATGGCTATATTTCAGCATCATCACATCATCATCATCATCATCACAGGGTAGATCATCATCATCAACACGGGACGACAGCAAATGGCACCCTTCTATAAGCTTTTTATGTCTAACGCTTGAATTAAGCCGCGCCGCGAAGCGGCGTCGGCTTGAATGAATTGTTAGACATTTTCTCGAGGGTATAGCATTCTAG / CCCTGTGATGATGATGATGATGATGTGATGATGCTGAAATATAGCCATGGACGCAGATCTACGCAATGCGCAATG / CTAGAATGCTATACCCTCGAGCGCAAGCTTATAGAAGGGTGCCATTTGCTGTCGTCCCGTGTTGATGATGATGATC [double-attCaadA7bs + staples]
K half [1]: 153 nM | K half [2]: 100 nM | K half [3]: 180 nM

CATTGCGCATTGCGTAGATCTTTTGAGTAACCGTTTTGAGTCGAACCCAACGATCCGTTGGTGTTCGAGCTCATCTGTGTTACTCTTTCCATGGCTATATTTCAGCATCATCACATCATCATCATCATCATCACAGGGTAGATCATCATCATCAACACGGGACGACAGCAAATGGCACCCTTCTATAAGCTTTTTGAGTAACCGTTTTGAGTCGAACCCAACGATCCGTTGGTGTTCGAGCTCATCTGTGTTACTCTTTCTCGAGGGTATAGCATTCTAG / CCCTGTGATGATGATGATGATGATGTGATGATGCTGAAATATAGCCATGGACGCAGATCTACGCAATGCGCAATG / CTAGAATGCTATACCCTCGAGCGCAAGCTTATAGAAGGGTGCCATTTGCTGTCGTCCCGTGTTGATGATGATGATC [double-attCL2 + staples]
K half [1]: 357 nM

CATTGCGCATTGCGTAGATCTTTTGTTATAACGCCCGCCTAAGGGGCTGACAACGCACTACCACTAAACTCAAACACAACAACAGCAACCACCGCGGCTCAATGGGACTGGAAACGCCACGCGTTGACAGTCCCTCTTGAGGCGTTTGTTATAACTTTCCATGGCTATATTTCAGCATCATCACATCATCATCATCATCATCACAGGGTAGATCATCATCATCAACACGGGACGACAGCAAATGGCACCCTTCTATAAGCTTTTTGTTATAACGCCCGCCTAAGGGGCTGACAACGCACTACCACTAAACTCAAACACAACAACAGCAACCACCGCGGCTCAATGGGACTGGAAACGCCACGCGTTGACAGTCCCTCTTGAGGCGTTTGTTATAACTTTCTCGAGGGTATAGCATTCTAG / CCCTGTGATGATGATGATGATGATGTGATGATGCTGAAATATAGCCATGGACGCAGATCTACGCAATGCGCAATG / CTAGAATGCTATACCCTCGAGCGCAAGCTTATAGAAGGGTGCCATTTGCTGTCGTCCCGTGTTGATGATGATGATC [double-attCVCR2/1 + staples]
K half [1]: 353 nM

CATTGCGCATTGCGTAGATCTTTTGTTATAACTTTCGCCTAAGGGGCTGACAACGCACTACCACTAAACTCAAACACAACAACAGCAACCACCGCGGCTCAATGGGACTGGAAACGCCACGCGTTGACAGTCCCTCTTGAGGCGGCCGTTATAACTTTCCATGGCTATATTTCAGCATCATCACATCATCATCATCATCATCACAGGGTAGATCATCATCATCAACACGGGACGACAGCAAATGGCACCCTTCTATAAGCTTTTTGTTATAACTTTCGCCTAAGGGGCTGACAACGCACTACCACTAAACTCAAACACAACAACAGCAACCACCGCGGCTCAATGGGACTGGAAACGCCACGCGTTGACAGTCCCTCTTGAGGCGGCCGTTATAACTTTCTCGAGGGTATAGCATTCTAG / CCCTGTGATGATGATGATGATGATGTGATGATGCTGAAATATAGCCATGGACGCAGATCTACGCAATGCGCAATG / CTAGAATGCTATACCCTCGAGCGCAAGCTTATAGAAGGGTGCCATTTGCTGTCGTCCCGTGTTGATGATGATGATC [double-attCVCRinv + staples]
K half [1]: 135 nM
